{"source": "patent US20130210673A1", "about": "(published 2013)", "data": [{"target": "T1, streptavidin (UniProt P22629 37-163, limits assumed)", "T1 construct": "Used as streptavidin-phycoerythrin in flow cytometry and as coated beads for YFP-SA-1; also called SA; streptavidin-phycoerythrin", "T1 sequence (P22629 37-163 limits assumed)": "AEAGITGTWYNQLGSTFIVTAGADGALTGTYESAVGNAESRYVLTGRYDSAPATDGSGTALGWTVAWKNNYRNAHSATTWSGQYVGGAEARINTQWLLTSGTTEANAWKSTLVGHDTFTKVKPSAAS", "assay": "bacterial display selection", "values": [{"binder": "TWVQCTMVCYGMSTT (insert only)", "note": "[SEQ ID NO 242]", "binding result": "binds"}, {"binder": "NEWYCQNVCERMPHS (insert only)", "note": "[SEQ ID NO 241]", "binding result": "binds"}, {"binder": "RLEICQNVCYYLGTL (insert only)", "note": "[SEQ ID NO 235]", "binding result": "binds"}, {"binder": "ADTICWYVCTISVHA (insert only)", "note": "[SEQ ID NO 244]", "binding result": "binds"}, {"binder": "TVLICMNICWTGETQ (insert only)", "note": "[SEQ ID NO 236]", "binding result": "binds"}, {"binder": "YWVCMNVCMYYTARQ (insert only)", "note": "[SEQ ID NO 238]", "binding result": "binds"}, {"binder": "ICSYVMYTTCFLRVY (insert only)", "note": "[SEQ ID NO 237]", "binding result": "binds"}, {"binder": "LPVWCVMHVCLTSSR (insert only)", "note": "[SEQ ID NO 239]", "binding result": "binds"}, {"binder": "IMMECFYVCTIANTQ (insert only)", "note": "[SEQ ID NO 245]", "binding result": "binds"}]}, {"target": "T2, human C-reactive protein (human, UniProt P02741 19-224, biotinylated or conjugated to AlexaFluor488 for labeling)", "T2 construct": "Bought protein; also called CRP; C-RP", "T2 sequence (looked up)": "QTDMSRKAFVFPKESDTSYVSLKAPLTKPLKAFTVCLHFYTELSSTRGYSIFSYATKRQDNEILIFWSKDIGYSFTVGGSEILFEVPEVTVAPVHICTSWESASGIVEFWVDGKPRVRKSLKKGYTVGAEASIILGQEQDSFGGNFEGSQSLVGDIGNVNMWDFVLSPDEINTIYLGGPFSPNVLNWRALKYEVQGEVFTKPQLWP", "assay": "bacterial display selection", "values": [{"binder": "EWACNDRGFNCQLQR (insert only)", "note": "[SEQ ID NO 255]", "binding result": "binds"}, {"binder": "MIFNSRGFLSLMSSG (insert only)", "note": "[SEQ ID NO 253]", "binding result": "binds"}, {"binder": "FPIYNQRGFITLASP (insert only)", "note": "[SEQ ID NO 256]", "binding result": "binds"}, {"binder": "YPPRFQYYRFYYRGP (insert only)", "note": "[SEQ ID NO 247]", "binding result": "binds"}]}, {"target": "T1, streptavidin", "assay": "flow cytometry, equilibrium", "description": "The corresponding mean fluorescence versus concentration data were fit to a monovalent binding isotherm to obtain the apparent KD. Dissociation rates of streptavidin-binding clones were measured in the presence of about 1 to about 2 μM biotin. Cells were labeled with 50 nM streptavidin-phycoerythrin for 30 minutes at room temperature. The cells were then pelleted, resuspended in PBS with biotin, and immediately analyzed by flow cytometry. Fluorescence data were collected continuously for about five minutes. The dissociation rate constants were then determined as described previously. See Daugherty, P. S., et al. (1998) Protein Eng. 11(9):825-832, which is herein incorporated by reference.", "values": [{"binder": "TVLICMNICWTGETQ (insert only)", "note": "[SEQ ID NO 233]", "binding result": "binds"}, {"binder": "RLEICQNVCYYLGTL (insert only)", "note": "[SEQ ID NO 232]", "binding result": "binds"}, {"binder": "ICSYVMYTTCFLRVY (insert only)", "note": "[SEQ ID NO 234]", "binding result": "binds"}]}]}
